Assay results published in patent US20220010310A1, “An lncRNA integrates a DNA-PK-mediated DNA damage response and vascular senescence” (The Brigham and Women`s Hospital, Inc., priority 2018, published 2022).

Target: purified DNA-PK protein (Homo sapiens, UniProt P78527)
Assay: DNA-PK kinase activity, ATP to ADP conversion (luminescence)
Type: biochemical
Settings: 10 pmol transcript, ATP 150 μM
Source text: FIGS. 9A-I. Identification of DNA-PK as an SNHG12 interactor. (A) Illustration of lncRNA pulldown using nuclear protein extract from HUVECs for in vitro transcribed biotin-labeled SNHG12 or negative control LacZ followed by streptavidin beads pulldown. Protein eluate was sent for MS. (B) Protein hits for SNHG12 (n=2, two technical replicates each). (C) LncRNA pulldown of biotin-labeled SNHG12 compared to negative controls LacZ and antisense transcript for SNHG12 (n=3). (D) RT-qPCR analysis for intravenous delivery of biotinylated SNHG12 to the aorta (n=4 per group). P value was determined by Student's t test. […] P value was determined by Student's t test. (H) Purified DNA-PK protein was incubated with in vitro transcribed LacZ or SNHG12 transcript (10 pmol) together with ATP (150 μM) and luminescence was measured for detecting conversion to ADP. […] P value was determined by Student's t test. (I) DNA-PK protein was incubated for 1 hr with the DNA-PK kinase inhibitor NU7441 (1, 10, 100 μM) to assess DNA-PK kinase activity by luminescence (n=1). […]
To identify the functional consequences of the interaction of SNHG12 with DNA-PK, we assessed the effect of SNHG12 on DNA-PK's kinase activity (DNA-PKcs). Incubation of purified DNA-PK protein with in vitro transcribed SNHG12 assessed the ability of DNA-PKcs to convert ATP to ADP. […]

B1: SNHG12: T7 in vitro transcribed SNHG12 lncRNA transcript used in MST and DNA-PK kinase assays (nucleic acid, listed as Homo sapiens)
chain: TCTAGAGCTAGCGAATTCCTTTCTCCCCGCCGCATTCCCGGTGTCGACTTACTAGCTGCAAGCCTCTGCCTGCCTTCCTGCGCGCCGTTCCCCGCTAGTCGCTGCTGCTGGCGCGCACTCGCCGGGTTTTTCCTCCCACGGCCTCGAGATGGTGGTGAATGTGGCACGGAGGAGCCGGGCCTTCCAACCCGGTGGGCCCGAGCTCCGAAAGGCCCCCTCGGCAGTGAGAGGGGCGGGAGCCCGCGGGGGCCGCGCCCTTCTCTCGCTTCGGACTGCGCAACGCTGCGCTCTGGGCTGACAGGCGGATAAAACGGTCCCATCAAGACTGAGAAAAAGCACACCAGCTATTGGCACAGCGTGGGCAGTGGGGCCTACAGGATGACTGACTTAGTCTACAGAGATCCCGGCGTACTTAAGCAGATGAAGACTCTTAAGATGACAGAAGGTGATTTTTCTGGTGATCGAGGACTTCCGGGGTAATGACAGTGATGAAATGCAGGGGACCTGGTTGCCCCCAAGTTTCCTGGCAGTGTGTGATACTGAGGAGGTGAGCTTGTTTCTGGAGCTGTGCTTTAAGGTAAAGTTGATCAGCTTAATCCTCCTGATCCCTTTCCCATCGGATCTGAACACTGGTCTTGGTGGTCGTAAAAGGAGGAAAAGTAATAGTGAAGCTGGCCTAAATGTTGTAATCTGGTATATGGCATGTGGGCTAGTTTCAGACAGGTTTCAGAGATGGTTGGATCTCTGAAATTGTAAAATGAAGTATAATCTTAGGCTAAGGGAAGGATGCGTGTGAAGCTCTGGAGGTTGGTATAGTAATAGCTGACCTATTACTGCATTTGGGAGGGATCTGTCATAGCTTCCTTGCCTCTTAATTAAGGGTGGTGTTTTTTTCTTTTAGATTCATGTTACATGTAAAGCTGTCCTCATTTGTGACTATGGACCTATGGAGTTGGGACAATCTCTATGGGAAGCAGAAGGCAAGGACCCCGGTCATTTTAGGTAGAAACAACAGCATGCTAATGCAAAAAATTATGCAGTGTGCTACTGAACTTCAGAGGTGATCAATAAAAGAAGAATAAAAAGACTAATAAAAGTAGAATTCTGATCAGGATCC
B1 was tested, and the “increase of DNA-PKcs kinase activity compared to the LacZ control” value was 2 fold.
